These results are taken from patent US20230143604A1, “QW DOSING OF GIP RECEPTOR AGONIST PEPTIDE COMPOUNDS AND USES THEREOF” (TAKEDA PHARMACEUTICAL COMPANY LIMITED, priority 2020, published 2023).

The chains are these.
T1: full-length human GIPR with an N-terminal FLAG tag (human, UniProt P48546 22-466)
T1 sequence (looked up): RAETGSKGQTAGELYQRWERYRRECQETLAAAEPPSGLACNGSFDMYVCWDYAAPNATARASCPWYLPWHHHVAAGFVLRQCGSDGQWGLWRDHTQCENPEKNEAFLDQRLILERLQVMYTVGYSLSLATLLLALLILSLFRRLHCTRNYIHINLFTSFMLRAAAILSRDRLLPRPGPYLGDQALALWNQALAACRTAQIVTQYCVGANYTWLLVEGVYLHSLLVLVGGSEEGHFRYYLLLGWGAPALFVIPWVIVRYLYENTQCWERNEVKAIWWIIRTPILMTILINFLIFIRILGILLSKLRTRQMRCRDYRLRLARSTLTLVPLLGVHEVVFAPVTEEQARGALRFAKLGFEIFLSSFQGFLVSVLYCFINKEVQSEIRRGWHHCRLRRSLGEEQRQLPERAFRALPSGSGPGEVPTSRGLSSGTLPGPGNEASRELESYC

T2: full-length human GIPR with an N-terminal FLAG tag, overexpressed on HEK-293T cells (human, UniProt P48546 22-466)
T2 sequence (looked up): T1 sequence (looked up)

B1: Compound No. 47 (peptide)
peptide: YXEGTFISDYSIXXDRXAQXDFVNWLLAQSPSSGAPPPS
modifications: N-methyl Tyr 1; Aib at 2,13,17,20; Lys(G5-C18 diacid) at 14; C-terminal OH
B2: Compound No. 51 (peptide)
peptide: B1 peptide with X13A, X14L, S30R
modifications: N-methyl Tyr 1; Aib at 2,20; Lys(G5-C18 diacid) at 17; C-terminal OH
B3: Compound No. 48 (peptide)
peptide: B1 peptide
modifications: N-methyl Tyr 1; Aib at 2,13,17,20; Lys(G5-C18 diacid) at 14; C-terminal NH2
B4: Compound No. 49 (peptide)
peptide: [NMeY][Aib]EGTFISDYSIALDR[Aib]K(2OEGgEgE‑C18 diacid)Q[Aib]DFVNWLLAQRG-OH
modifications: N-terminus assumed
SMILES: CC[C@H](C)[C@H](NC(=O)[C@H](CO)NC(=O)[C@H](Cc1ccc(O)cc1)NC(=O)[C@H](CC(=O)O)NC(=O)[C@H](CO)NC(=O)[C@@H](NC(=O)[C@H](Cc1ccccc1)NC(=O)[C@@H](NC(=O)CNC(=O)[C@H](CCC(=O)O)NC(=O)C(C)(C)NC(=O)[C@H](Cc1ccc(O)cc1)NC)[C@@H](C)O)[C@@H](C)CC)C(=O)N[C@@H](C)C(=O)N[C@@H](CC(C)C)C(=O)N[C@@H](CC(=O)O)C(=O)N[C@@H](CCCNC(=N)N)C(=O)NC(C)(C)C(=O)N[C@@H](CCCCNC(=O)COCCOCCNC(=O)COCCOCCNC(=O)CC[C@H](NC(=O)CC[C@H](NC(=O)CCCCCCCCCCCCCCCCC(=O)O)C(=O)O)C(=O)O)C(=O)N[C@@H](CCC(N)=O)C(=O)NC(C)(C)C(=O)N[C@@H](CC(=O)O)C(=O)N[C@@H](Cc1ccccc1)C(=O)N[C@H](C(=O)N[C@@H](CC(N)=O)C(=O)N[C@@H](Cc1c[nH]c2ccccc12)C(=O)N[C@@H](CC(C)C)C(=O)N[C@@H](CC(C)C)C(=O)N[C@@H](C)C(=O)N[C@@H](CCC(N)=O)C(=O)N[C@@H](CCCNC(=N)N)C(=O)NCC(=O)O)C(C)C
B5: Compound No. 213 (peptide)
peptide: [NMeY][Aib]EGTFISDYSIALDR[Aib]AQ[Aib]K([AEEA-AEEA-γGlu-γGlu-C18 diacid])FVNWLLAQRG-OH
B6: Compound No. 189 (peptide)
peptide: YXEGTFISDYSIAMDKIHQQDFVNWLLAQXGKKNDWKHNITQ
modifications: N-TER cell blank; Aib at 2; Km at 30 = Lys(2OEGgE-C18DA); C-terminus OH
B7: Compound No. 157 (peptide)
peptide: YXEGTFISDYSIAXDKAAQQXFVEWLLAQRG
modifications: N-terminus H; Aib at 2, 14; Km at 21 = Lys(2OEGgEgE-C18DA); C-terminus OH
B8: Compound No. 158 (peptide)
peptide: B7 peptide with Q20A
modifications: N-terminus H; Aib at 2, 14; Km at 21 = Lys(2OEGgEgE-C18DA); C-terminus OH
B9: Compound No. 172 (peptide)
peptide: H-Y[Aib]EGTFISDYSI[Aib]LDKIK([AEEA-AEEA-γGlu-C18 diacid])QADFVNWLLAQRG-OH
SMILES: CC[C@H](C)[C@H](NC(=O)[C@H](CCCCN)NC(=O)[C@H](CC(=O)O)NC(=O)[C@H](CC(C)C)NC(=O)C(C)(C)NC(=O)[C@@H](NC(=O)[C@H](CO)NC(=O)[C@H](Cc1ccc(O)cc1)NC(=O)[C@H](CC(=O)O)NC(=O)[C@H](CO)NC(=O)[C@@H](NC(=O)[C@H](Cc1ccccc1)NC(=O)[C@@H](NC(=O)CNC(=O)[C@H](CCC(=O)O)NC(=O)C(C)(C)NC(=O)[C@@H](N)Cc1ccc(O)cc1)[C@@H](C)O)[C@@H](C)CC)[C@@H](C)CC)C(=O)N[C@@H](CCCCNC(=O)COCCOCCNC(=O)COCCOCCNC(=O)CC[C@H](NC(=O)CCCCCCCCCCCCCCCCC(=O)O)C(=O)O)C(=O)N[C@@H](CCC(N)=O)C(=O)N[C@@H](C)C(=O)N[C@@H](CC(=O)O)C(=O)N[C@@H](Cc1ccccc1)C(=O)N[C@H](C(=O)N[C@@H](CC(N)=O)C(=O)N[C@@H](Cc1c[nH]c2ccccc12)C(=O)N[C@@H](CC(C)C)C(=O)N[C@@H](CC(C)C)C(=O)N[C@@H](C)C(=O)N[C@@H](CCC(N)=O)C(=O)N[C@@H](CCCNC(=N)N)C(=O)NCC(=O)O)C(C)C
B10: Compound No. 156 (peptide)
peptide: Y[Aib]EGTFISDYSIALDK[Aib]AQRK([AEEA-AEEA-γGlu-γGlu-C18 diacid])FVEWLLAQRG-OH
modifications: N-terminus assumed
SMILES: CC[C@H](C)[C@H](NC(=O)[C@H](CO)NC(=O)[C@H](Cc1ccc(O)cc1)NC(=O)[C@H](CC(=O)O)NC(=O)[C@H](CO)NC(=O)[C@@H](NC(=O)[C@H](Cc1ccccc1)NC(=O)[C@@H](NC(=O)CNC(=O)[C@H](CCC(=O)O)NC(=O)C(C)(C)NC(=O)[C@@H](N)Cc1ccc(O)cc1)[C@@H](C)O)[C@@H](C)CC)C(=O)N[C@@H](C)C(=O)N[C@@H](CC(C)C)C(=O)N[C@@H](CC(=O)O)C(=O)N[C@@H](CCCCN)C(=O)NC(C)(C)C(=O)N[C@@H](C)C(=O)N[C@@H](CCC(N)=O)C(=O)N[C@@H](CCCNC(=N)N)C(=O)N[C@@H](CCCCNC(=O)COCCOCCNC(=O)COCCOCCNC(=O)CC[C@H](NC(=O)CC[C@H](NC(=O)CCCCCCCCCCCCCCCCC(=O)O)C(=O)O)C(=O)O)C(=O)N[C@@H](Cc1ccccc1)C(=O)N[C@H](C(=O)N[C@@H](CCC(=O)O)C(=O)N[C@@H](Cc1c[nH]c2ccccc12)C(=O)N[C@@H](CC(C)C)C(=O)N[C@@H](CC(C)C)C(=O)N[C@@H](C)C(=O)N[C@@H](CCC(N)=O)C(=O)N[C@@H](CCCNC(=N)N)C(=O)NCC(=O)O)C(C)C
B11: Compound No. 184 (peptide)
peptide: [NMeY][Aib]EGTFISDYSIAEDRKHQ[Aib]NFVNWLLAQK([AEEA-AEEA-γGlu-C18 diacid])PSSGAPPPS-NH2
modifications: also: E* at 14 and K* at 17 marked * (not explained)
B12: Compound No. 211 (peptide)
peptide: [NMeY][Aib]EGTFISDYSI[Aib]LDK[Aib]AQ[Aib]K([AEEA-AEEA-γGlu-γGlu-C18 diacid])FVNWLLAQRG-OH
B13: Compound No. 209 (peptide)
peptide: Me-Y[Aib]EGTFISDYSI[Aib]LDR[Aib]AQ[Aib]KFVNWLLAQRG-OH
modifications: not fully specified (residues 1, 21)
B14: Compound No. 220 (peptide)
peptide: [NMeY][Aib]EGTFISDYSI[Aib]LDK[Aib]AQ[Aib]K([AEEA-AEEA-γGlu-γGlu-C18 diacid])FVNWLLAQRG-OH
B15: Compound No. 181 (peptide)
peptide: Me-Y[Aib]EGTFISDYSIALDR[Aib]HQQ[E∗]FV[K∗]WLLAQK([AEEA-AEEA-γGlu-C18 diacid])PSSGAPPPS-NH2
modifications: not fully specified (residue 1); reading uncertain; also: E* at 21 and K* at 24 marked, meaning not given here

Residue numbers refer to the chain shown, from its start. Starred links: 1 amine or outer side, 2 acyl side, 3 side chain; linkers in the order of their positions; H or OH if unused. Non-standard residues stand in square brackets, D forms with d. Groups on a side chain read outwards from the residue. No end group written: not given here. *: point of attachment. 2OEGgEgE‑C18 diacid = O=C(O)CCCCCCCCCCCCCCCCC(=O)N[C@@H](CCC(=O)N[C@@H](CCC(=O)NCCOCCOCC(=O)NCCOCCOCC(=O)*)C(=O)O)C(=O)O; C18 diacid = O=C(O)CCCCCCCCCCCCCCCCC(=O)*; γGlu = O=C(O)[C@H](CCC(=O)[*:2])N[*:1]; NMeY = CN[C@@H](Cc1ccc(O)cc1)C(=O)O; AEEA = NCCOCCOCC(=O)O; E∗ = not defined here; K∗ = not defined here; Aib = CC(C)(N)C(=O)O

One test addresses full-length human GLP-1R with an N-terminal FLAG tag (human, UniProt P43220 24-463). Nature of the test: cell-based or functional assay.
Take B1: the “Human GLP1R cAMP EC50, HEK293T” value amounted to 148000 pM.

Consider B2, for which the “Human GLP1R cAMP EC50, HEK293T” value is 14800 pM.

In the case of B3, the “Human GLP1R cAMP EC50, HEK293T” value worked out at 87100 pM.

For the molecule B4, the “Human GLP1R cAMP EC50, HEK293T” value stood at 107000 pM.

The target in a further test is T1, full-length human GIPR with an …. Nature of the test: cell-based or functional assay.
For B1, the “Human GIPR cAMP EC50, HEK293T” value was found to be 0.8 pM.

B2: the “Human GIPR cAMP EC50, HEK293T” value was 0.6 pM.

With B3, the “Human GIPR cAMP EC50, HEK293T” value stood at 0.7 pM.

Regarding B4, the “Human GIPR cAMP EC50, HEK293T” value was found to be 0.6 pM.

The target of a further test is full-length human GLP-1R with an N-terminal FLAG tag, overexpressed on HEK-293T cells (human, UniProt P43220 24-463). Description: cell-based or functional assay.
For B5, the “Human GLP1R cAMP EC50, HEK293T” value turned out to be 40700 pM.

For the molecule B6, the “Human GLP1R cAMP EC50, HEK293T” value is 219000 pM.

In the case of B7, the “Human GLP1R cAMP EC50, HEK293T” value was found to be 437000 pM.

Take B8: the “Human GLP1R cAMP EC50, HEK293T” value worked out at 339000 pM.

Take B9: the “Human GLP1R cAMP EC50, HEK293T” value worked out at 93300 pM.

For the molecule B10, the “Human GLP1R cAMP EC50, HEK293T” value was found to be 10200 pM.

For the next test, the target named is T2, full-length human GIPR with an …. Nature of the test: cell-based or functional assay.
As for B11, the “Human GIPR cAMP EC50, HEK293T” value worked out at 0.5 pM.

B12: the “Human GIPR cAMP EC50, HEK293T” value was determined as 0.5 pM.

As for B13, the “Human GIPR cAMP EC50, HEK293T” value stood at 0.4 pM.

Take B7: the “Human GIPR cAMP EC50, HEK293T” value amounted to 0.3 pM.

As for B8, the “Human GIPR cAMP EC50, HEK293T” value stood at 0.5 pM.

For B14, the “Human GIPR cAMP EC50, HEK293T” value was 0.5 pM.

As for B10, the “Human GIPR cAMP EC50, HEK293T” value was found to be 1.3 pM.

As for B15, the “Human GIPR cAMP EC50, HEK293T” value amounted to 0.4 pM.
